Some targets named below: Halo-LMO2 (human) (UniProt P25791); Halo-LYL1 (human) (UniProt P12980); Halo-LYL1(F201D) (human) (UniProt P12980); Halo-TAL1 (human) (UniProt P17542); Halo-TAL1(F238D) (human) (UniProt P17542).
Assay in all cases: cell-based or functional assay

UniProt P25791, sequence (P25791 whole entry): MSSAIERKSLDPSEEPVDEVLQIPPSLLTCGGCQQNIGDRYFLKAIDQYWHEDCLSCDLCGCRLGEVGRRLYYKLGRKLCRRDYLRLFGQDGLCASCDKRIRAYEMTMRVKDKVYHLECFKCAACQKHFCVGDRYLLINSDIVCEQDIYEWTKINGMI

In the case of HA-LDB1ΔLID (from UniProt Q86U70 1-375), the Halo-LMO2 t1/2, HaloLife pulse chase in Jurkat cells (6.6 hours without co-expression) with Halo-LMO2 (human) stood at 4 h.
On to HA-LDB1 (from UniProt Q86U70 1-375), for which the Halo-LMO2 t1/2, HaloLife pulse chase in Jurkat cells (6.6 hours without co-expression) in the assay with Halo-LMO2 (human) turned out to be 20.6 h. The Halo-LYL1 t1/2 with HA-LDB1 co-expressed in the presence of LMO2, HaloLife assay with Halo-LYL1 (human) amounted to 20.5 h. Further, in the assay with Halo-LYL1(F201D) (human), the Halo-LYL1(F201D) t1/2 with HA-LDB1 co-expressed, HaloLife assay came to 3.7 h. Further, in the assay with Halo-TAL1 (human), the Halo-TAL1 t1/2 with HA-LDB1 co-expressed in the presence of LMO2, HaloLife assay was 19.9 h. Moreover, in the assay with Halo-TAL1(F238D) (human), the Halo-TAL1(F238D) t1/2 with HA-LDB1 co-expressed, HaloLife assay came out at 10.7 h.

Values taken from patent US20230242903A1.
